Substitutions are numbered along the chain they refer to. Blank lines part the entries; values can stand above or below the binder they belong to. Bridges are numbered along the chain shown (N, C = ends).
Tests used:
[1] = molecular target: T1, extracellular domain of activin receptor type IIB (ActRIIBecd), biotinylated (Homo sapiens (Human), UniProt Q13705 27-117, amino-biotinylated with amine-PEG3-Biotin); experiment: BIAcore SPR, biotinylated ActRIIBecd on chip; SD ±16.41 nM
T1 construct: immobilised on a streptavidin-coated sensor chip; also called biotinylated ActRIIBecd; extracellular domain of ActRIIB
T1 sequence: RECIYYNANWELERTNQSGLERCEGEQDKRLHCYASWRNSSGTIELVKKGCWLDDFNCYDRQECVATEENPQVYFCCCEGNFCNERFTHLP
Procedure: (§1) Biosensor experiments. In one embodiment, experiments were performed on a BIAcore™ T100/T200 instrument (Pharmacia Biosensor AB) in the multichannel mode (serial flow path involving flow cells 1+2+3+4). Flow rate was 10 μl/min; temperature was 25° C.; and data were recorded at 2.5 points/s. All four segments of a sensor chip CMS were coated with streptavidin (Sigma) to a density of 2000 pg/mm² (2000 resonance units) by the aminocoupling procedure. ActRIIBecd (10 mg) and amine-PEG3-Biotin (10 mg, Pierce, Rockford, Ill.) were dissolved in 200 μl H₂O and 10 mg NaCNBH₃ was added to prepare biotinylated ActRIIBecd. The reaction mixture was heated at 70° C. for 24 h, after that a further 10 mg NaCNBH₃ was added and the reaction was heated at 70° C. for another 24 h. After cooling to room temperature, the mixture was desalted with the spin column (3,000 molecular weight cut off (MWCO)). […] Sensograms were recorded during flow of the analyte (the ActRIIBecd-associated polypeptides (i.e., domains) as previously described) first through flow cell 1 (control) then through flow cell 2 (biotinylated ActRIIBecd). […] The sensograms obtained at 1.11, 3.33, 10, 30, and 90 nM analyte were evaluated for equilibrium binding, association rate, and dissociation rate by using the programs supplied with the instrument (BIA evaluation 2.1; Software Handbook. 1995; Pharmacia Biosensor AB).

[2] = molecular target: T1, extracellular domain of activin …; experiment: BIAcore SPR as Example 5 (method not restated); SD ±1.41 nM
Procedure: as §1

[3] = molecular target: T1, extracellular domain of activin …; experiment: Mean KD column of Table 5; method not restated (BIAcore as Example 5); species also listed in Table 4
Procedure: Biosensor experiments. In one embodiment, experiments were performed on a BIAcore™ T100/T200 instrument (Pharmacia Biosensor AB) in the multichannel mode (serial flow path involving flow cells 1+2+3+4). Flow rate was 10 μl/min; temperature was 25° C.; and data were recorded at 2.5 points/s. All four segments of a sensor chip CMS were coated with streptavidin (Sigma) to a density of 2000 pg/mm² (2000 resonance units) by the aminocoupling procedure. ActRIIBecd (10 mg) and amine-PEG3-Biotin (10 mg, Pierce, Rockford, Ill.) were dissolved in 200 μl H₂O and 10 mg NaCNBH₃ was added to prepare biotinylated ActRIIBecd. The reaction mixture was heated at 70° C. for 24 h, after that a further 10 mg NaCNBH₃ was added and the reaction was heated at 70° C. for another 24 h. After cooling to room temperature, the mixture was desalted with the spin column (3,000 molecular weight cut off (MWCO)). Biotinylated ActRIIBecd was collected, freeze-dried and used for streptavidin (SA) chip preparation. Amino-biotinylated ActRIIBecd was then immobilized independently on flow cells 2-4 for 10 minutes at a flow rate of 5 μL/min and a concentration of 20 μM in 10 mM sodium acetate, pH 4.0, at a density of 50-250 resonance units (RU). The stored polypeptides were dissolved in glycine buffer (2.5 g of glycine, 0.5 g of sucrose, 370 mg of L-glutamate, 10 mg of sodium chloride, and 10 mg of Tween 80 in 100 mL water, pH 4.5) to prepare 10 mg/mL solution and then diluted with previous glycine buffer to prepare analytes with various concentration. Sensograms were recorded during flow of the analyte (the ActRIIBecd-associated polypeptides (i.e., domains) as previously described) first through flow cell 1 (control) then through flow cell 2 (biotinylated ActRIIBecd). The sensogram obtained for flow cell 1 was subtracted from the sensogram obtained for flow cell 2. The sensograms obtained at 1.11, 3.33, 10, 30, and 90 nM analyte were evaluated for equilibrium binding, association rate, and dissociation rate by using the programs supplied with the instrument (BIA evaluation 2.1; Software Handbook. 1995; Pharmacia Biosensor AB).

[4] = molecular target: T1, extracellular domain of activin …; experiment: BIAcore SPR as Example 5 (method not restated); SD ±2.06 nM
Procedure: as §1

[5] = molecular target: T1, extracellular domain of activin …; experiment: BIAcore SPR as Example 5 (method not restated); SD ±1.98 nM
Procedure: as §1

[6] = molecular target: T1, extracellular domain of activin …; experiment: BIAcore SPR as Example 5 (method not restated); SD ±2.89 nM
Procedure: as §1

[7] = molecular target: T1, extracellular domain of activin …; experiment: BIAcore SPR, biotinylated ActRIIBecd on chip; SD ±13.51 nM
Procedure: as §1

[8] = molecular target: T1, extracellular domain of activin …; experiment: BIAcore SPR as Example 5 (method not restated); SD ±1.37 nM
Procedure: as §1

[9] = molecular target: T1, extracellular domain of activin …; experiment: BIAcore SPR as Example 5 (method not restated); SD ±1.77 nM
Procedure: as §1

[10] = molecular target: T1, extracellular domain of activin …; experiment: BIAcore SPR, biotinylated ActRIIBecd on chip; SD ±12.12 nM
Procedure: as §1

[11] = molecular target: T1, extracellular domain of activin …; experiment: BIAcore SPR as Example 5 (method not restated); SD ±1.72 nM
Procedure: as §1

[12] = molecular target: T1, extracellular domain of activin …; experiment: BIAcore SPR as Example 5 (method not restated); SD ±2.21 nM
Procedure: as §1

[13] = molecular target: T1, extracellular domain of activin …; experiment: BIAcore SPR, biotinylated ActRIIBecd on chip; SD ±14.11 nM
Procedure: as §1

[14] = molecular target: T1, extracellular domain of activin …; experiment: BIAcore SPR as Example 5 (method not restated); SD ±3.12 nM
Procedure: as §1

[15] = molecular target: T1, extracellular domain of activin …; experiment: BIAcore SPR as Example 5 (method not restated); SD ±1.09 nM
Procedure: as §1

[16] = molecular target: T1, extracellular domain of activin …; experiment: BIAcore SPR as Example 5 (method not restated); SD ±1.70 nM
Procedure: as §1

Kd [1]: 66.4 nM
B1: Recombinant polypeptide of clones 18 + 17 (designed binder)
chain: VDFSDVGWNDHAVAPPGYHAFYCHGECPFPLADHLNSTNHAIVQTLVNSVVDFSDVGWNDWIVAPPGYHAFYCHGECPFPLADHLNSDNHAIVQTLVNSV

Kd [2]: 18.6 nM
Kd [3]: 18.6 nM
B2: SEQ ID NO: 200, cysteine pairs C23-C27^a, C58-C91^a, C59-C93^a (designed binder)
chain: VDFSDVGWNDWIVAPPGYHAFYCHGECPFPLADHLNSTNHAIVQTLVNSVNSKIPKACCVPTELSAISMLYLDENEKVVLKNYQDMVVEGCGCR
modifications: disulfides C23-C27 (intra), C58-C91 (intra), C59-C93 (intra)

Kd [4]: 20.1 nM
Kd [3]: 20.1 nM
B3: SEQ ID NO: 200, cysteine pairs C23-C27^a, C58-C93^a, C59-C91^a (designed binder)
chain: B2 chain
modifications: disulfides C23-C27 (intra), C58-C93 (intra), C59-C91 (intra)

Kd [5]: 19.8 nM
Kd [3]: 19.8 nM
B4: SEQ ID NO: 200, cysteine pairs C23-C27^a, C58-C91^b, C59-C93^b (designed binder)
chain: B2 chain
modifications: disulfides C23-C27 (intra), C58-C91 (inter), C59-C93 (inter)
notes: homodimer by intermolecular disulfide

Kd [6]: 47.6 nM
Kd [3]: 47.6 nM
B5: SEQ ID NO: 200, cysteine pairs C23-C58^a (designed binder)
chain: B2 chain
modifications: disulfides C23-C58 (intra)

Kd [7]: 29.7 nM
B6: Recombinant polypeptide of clones 15 + 10 (designed binder)
chain: VDFSDVGWNDWIVAPPGYHAFYCHGECPFPLADHLNSTNHAIVQTLVNSVAQAKHKQRKRLKSSCKRHPLY

Kd [8]: 6.19 nM
Kd [3]: 6.19 nM
B7: SEQ ID NO: 292, cysteine pairs C80-C114^a, C79-C112^a, C44-C48^a (designed binder)
chain: GQAKRKGYKRLKSSCKRHPLYVDFKDVGWNDHAVAPPGYHAFYCHGECPFPLADHLNSDNHAIVQTKVNSVNSKDPKACCVPTELSAPSPLYLDENEKPVLKNYQDMVVHGCGCR
modifications: disulfides C80-C114 (intra), C79-C112 (intra), C44-C48 (intra)

Kd [3]: 9.11 nM
Kd [9]: 9.11 nM
B8: SEQ ID NO: 324, cysteine pairs C15-C15^b, C80-C114^b, C79-C112^b, C44-C48^a (designed binder)
chain: B7 chain with G1A, R5H, G7Q, Y8R, D75I, P88I, P90M, P99V, H110E
modifications: disulfides C15-C15 (inter), C80-C114 (inter), C79-C112 (inter), C44-C48 (intra)
notes: as for B4

Kd [10]: 36.4 nM
Binder: AQAKHKQRKRLKSSCKRHPLY [Clone No. 10 domain (ActRIIBecd-associated polypeptide)]

Kd [11]: 6.44 nM
Kd [3]: 6.44 nM
B9: SEQ ID NO: 300, cysteine pairs C23-C27^a, C65-C65^b, C79-C112^b, C80-C114^b (designed binder)
chain: VDFKDVGWNDHAVAPPGYHAFYCHGECPFPLADHLNSDNHAIVQTKVNSVGQAKRKGYKRLKSSCKRHPLYNSKDPKACCVPTELSAPSPLYLDENEKPVLKNYQDMVVHGCGCR
modifications: disulfides C23-C27 (intra), C65-C65 (inter), C79-C112 (inter), C80-C114 (inter)
notes: as for B4

Kd [12]: 18.1 nM
Kd [3]: 18.1 nM
B10: SEQ ID NO: 212, cysteine pairs C59-C59^b, C8-C41^a, C9-C43^a (designed binder)
chain: NSKIPKACCVPTELSAISMLYLDENEKVVLKNYQDMVVEGCGCRAQAKHKQRKRLKSSCKRHPLY
modifications: disulfide 8-41, 9-43; also: homodimer via intermolecular C59-C59 disulfide
notes: as for B4

Kd [8]: 5.34 nM
Kd [3]: 5.34 nM
B11: SEQ ID NO: 316, cysteine pairs C67-C71^a, C8-C41^a, C9-C43^a, C109-C109^b (designed binder)
chain: NSKDPKACCVPTELSAPSPLYLDENEKPVLKNYQDMVVHGCGCRVDFKDVGWNDHAVAPPGYHAFYCHGECPFPLADHLNSDNHAIVQTKVNSVGQAKRKGYKRLKSSCKRHPLY
modifications: disulfides C67-C71 (intra), C8-C41 (intra), C9-C43 (intra), C109-C109 (inter)
notes: as for B4

Kd [11]: 21.5 nM
Kd [3]: 21.5 nM
B12: SEQ ID NO: 188, cysteine pairs C44-C48^a (designed binder)
chain: AQAKHKQRKRLKSSCKRHPLYVDFSDVGWNDWIVAPPGYHAFYCHGECPFPLADHLNSTNHAIVQTLVNSV
modifications: disulfides C44-C48 (intra)

Kd [1]: 61.7 nM
B13: Clone No. 30 domain (ActRIIBecd-associated polypeptide) (peptide)
chain: TALDGTRGAQGSGGGGGGGGGGGGGGGGGGGGAGRGHGRRGRSRCSRKSLHVDFKELG

Kd [13]: 39.5 nM
Binder: VDFSDVGWNDWIVAPPGYHAFYCHGECPFPLADHLNSTNHAIVQTLVNSV [Clone No. 15 domain (ActRIIBecd-associated polypeptide)]

Kd [13]: 49.3 nM
Binder: TYPASPKPMRWKMRSCACCAGGLRNRTGTV [Clone No. 27 domain (ActRIIBecd-associated polypeptide)]

Kd [14]: 15.5 nM
Kd [3]: 15.5 nM
B14: SEQ ID NO: 206, cysteine pairs C67-C71^a, C8-C41^a, C9-C43^a (designed binder)
chain: NSKIPKACCVPTELSAISMLYLDENEKVVLKNYQDMVVEGCGCRVDFSDVGWNDWIVAPPGYHAFYCHGECPFPLADHLNSTNHAIVQTLVNSV
modifications: disulfides C67-C71 (intra), C8-C41 (intra), C9-C43 (intra)

Kd [15]: 49.7 nM
Kd [3]: 49.7 nM
B15: SEQ ID NO: 206, cysteine pairs C8-C71^a (designed binder)
chain: B14 chain
modifications: disulfides C8-C71 (intra)

Kd [3]: 17.7 nM
Kd [16]: 17.7 nM
B16: SEQ ID NO: 206, cysteine pairs C67-C71^a, C8-C43^a, C9-C41^a (designed binder)
chain: B14 chain
modifications: disulfides C67-C71 (intra), C8-C43 (intra), C9-C41 (intra)

Kd [3]: 8.13 nM
Kd [9]: 8.13 nM
B17: SEQ ID NO: 276, cysteine pairs C67-C71^a, C8-C41^b, C9-C43^b, C109-C109^b (designed binder)
chain: NSKIPKACCVPTELSAISMLYLDENEKVVLKNYQDMVVEGCGCRVDFSDVGWNDWIVAPPGYHAFYCHGECPFPLADHLNSTNHAIVQTLVNSVAQAKHKQRKRLKSSCKRHPLY
modifications: disulfides C67-C71 (intra), C8-C41 (inter), C9-C43 (inter), C109-C109 (inter)
notes: as for B4

Kd [7]: 14.2 nM
B18: Recombinant polypeptide of clones 21 + 15 + 10 (designed binder)
chain: B17 chain

Reference: patent publication US20190071480A1 (Biogen, published 2019)
